Data from US6323185.
pIC50: −log10 of the molar value.

Tests used:
[1] = molecular target: T1, SIV integrase (Simian immunodeficiency virus) (UniProt P05897); assay: inhibition; conditions: PS at first and last internucleoside linkages, 3'-OH; 3'-processing
T1 sequence: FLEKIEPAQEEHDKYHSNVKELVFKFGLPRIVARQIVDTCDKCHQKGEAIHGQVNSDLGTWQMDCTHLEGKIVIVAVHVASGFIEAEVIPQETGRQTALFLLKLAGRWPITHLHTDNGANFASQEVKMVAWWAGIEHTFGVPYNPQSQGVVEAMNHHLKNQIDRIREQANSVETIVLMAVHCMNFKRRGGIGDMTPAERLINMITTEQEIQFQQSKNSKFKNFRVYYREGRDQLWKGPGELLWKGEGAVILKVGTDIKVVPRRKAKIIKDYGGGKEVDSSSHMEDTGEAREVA

[2] = molecular target: HIV-1 integrase wild-type (IN1-288) (HIV-1) (UniProt P12497); assay: inhibition; conditions: 3'-processing

Q: How did the pIC50 [1] turn out when “GTGGTGGGTGGGTGGGT [T30177 (AR177, Zintevir)]” was run?
A: 6.38

Q: How did the pIC50 ([2]; all PS, strand transfer 0.036 uM) turn out when “TCTTCCTCTCTCTACCCACGCTCIC [T30531 antisense GEM91 variant PT]” was run?
A: 7.52

Q: How did the pIC50 ([2]; all phosphodiester, strand transfer >0.5 uM) turn out when “TCTTCCTCTCTCTACCCACGCTCIC [T30658 antisense GEM91 variant PD]” was run?
A: < 6.30

Q: “TCTTCCTCTCTCTACCCACGCTCIC [T30662 antisense GEM91 variant pPT]” was tested. Which pIC50 ([2]; PS at first and last linkages, strand transfer >0.5 uM) did it give?
A: < 6.30
